# From patent publication US20130079286A1 (Pieris, published 2013)
# T1: ovalbumin (UniProt P01012 2-386)
# T1 sequence (looked up): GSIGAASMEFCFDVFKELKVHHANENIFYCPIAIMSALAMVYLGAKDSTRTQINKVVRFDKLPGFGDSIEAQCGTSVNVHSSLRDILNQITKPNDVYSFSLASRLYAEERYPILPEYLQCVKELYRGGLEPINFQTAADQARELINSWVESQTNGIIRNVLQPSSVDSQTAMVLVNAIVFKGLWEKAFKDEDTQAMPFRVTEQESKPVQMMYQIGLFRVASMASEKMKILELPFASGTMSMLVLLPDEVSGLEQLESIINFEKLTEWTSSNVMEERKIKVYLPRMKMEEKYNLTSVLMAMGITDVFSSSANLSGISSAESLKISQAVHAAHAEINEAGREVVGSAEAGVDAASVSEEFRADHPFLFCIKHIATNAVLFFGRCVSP
# T2: central peptide Aβ16-27
# T2 construct: Bought from the Peptide Speciality Laboratory
# T2 peptide: KLVFFAEDVGSN
# B1: Lcn2 mutein S1-A4 (designed binder)
# chain: QDSTSDLIPAPPLSKVPLQQNFQDNQFHGKWYVVGVAGNYTLREDKDPLKMYATIYELKEDKSYNVTSVGFRLKKCNYKIRTFVPGSQPGEFTLGIIKSQPGMTSYLVRVVSTNYNQHAMVFFKTVGQNREMFNITLYGRTKELTSELKENFIRFSKSLGLPENHIVFPVPIDQCIDG
# How the values were obtained:
# ovalbumin = target: T1, ovalbumin; test: capture ELISA: 1 µM Lcn2 protein captured via Strep-tag II on coated StrepMAB-Immo, biotinylated target titrated, ExtrAvidin/AP + pNPP
# Protocol: (§1) FIG. 5 depicts the binding activity of the Lcn2 muteins H1-G1, S1-A4, and US7 in capture ELISAs with different biotinylated Aβ targets. StrepMAB-Immo at 10 μg/ml was immobilized on microtitre plates and employed for capturing of 1 JAM Lcn2 muteins via the Strep-tag H. In figures A to C the binding of the Lcn2 muteins S1-A4 and US7 to (A) biotinylated Aβ40, (B) biotinylated Trx-Aβ28, and (C) biotinylated MBP-Aβ40 are shown. Binding was detected by incubation with ExtrAvidin/AP and a subsequent chromogenic reaction with pNPP. Ovalbumin (Ova), thioredoxin (Trx), and maltose binding protein (MBP) were used as negative controls. Additionally, binding of wild-type (wt) lipocalin was tested. The data were fitted to a monovalent binding model.
# (§2) For selective capturing of the Lcn2 muteins carrying the C-terminal Strep-tag II (Schmidt and Skerra (2007) Nat. Protoc. 2, 1528-1535), a 96-well MaxiSorp polystyrene microtitre plate (Nunc, Langenselbold, Germany) was coated with 10 μg/mL StrepMAB-Immo (IBA, Göttingen, Germany) in PBS over night at 4° C. and blocked with 3% (w/v) BSA in PBS/T at room temperature for 1 h. After 3 washing steps with PBS/T, 50 μL of a 1 μM solution of the purified Lcn2 muteins from Example 7 were applied to all wells for 1 h. After washing, 50 μL of a dilution series of the biotinylated targets Aβ40, MBP-Aβ40 or Trx-Aβ28 from Example 2 were added and incubated for 1 h whereby the biotinylated forms of Ova, MBP and Trx from Example 2 served as negative control proteins. The wells were washed again and bound conjugate was detected with 50 μL of ExtrAvidin/AP conjugate (Sigma-Aldrich, Steinheim, Germany) diluted 1:5000 in PBS/T for 1 h, followed by signal development in the presence of 100 μL 0.5 mg/mL p-nitrophenyl phosphate (AppliChem, Darmstadt, Germany) in 100 mM Tris/HCl, pH 8.8, 100 mM NaCl, 5 mM MgCl₂.
# Trx-Aβ28 fusion protein [1] = target: T3, Trx-Aβ28 fusion protein (Escherichia coli (strain K12), UniProt P0AA25 1-76 = thioredoxin, Biotin-labelled through an NHS ester (2:1) in the capture and competitive ELISAs; unlabeled in the direct ELISA and as competitor.); test: capture ELISA: mutein captured, biotinylated Trx-Aβ28 titrated
# T3 construct: the entry may be a nucleic acid; also called TrxAbeta28H6
# Protocol: as §1, §2
# MBP-Aβ40 fusion protein [2] = target: T4, MBP-Aβ40 fusion protein; test: SPR (Biacore X), MBP-Aβ40 amine-coupled, mutein as analyte
# T4 construct: the entry may be a nucleic acid; Biotin-labelled in the capture ELISA, unlabeled in the direct ELISA and SPR; also called MBP-Abeta40
# Protocol: Real time analysis of Lcn2 muteins was performed on a Biacore X system (Biacore, Uppsala, Sweden) using PBS/T (PBS containing 0.005% (v/v) Tween 20) as running buffer. A 50 μg/mL solution of MBP-Aβ40 from Example 2 in 10 mM Na-acetate, pH 4.5 was immobilized onto a […] chip (Xantec, Düsseldorf, Germany) using standard amine coupling chemistry, resulting in a ligand density of 1455 resonance units (RU). […] The sensorgrams were corrected by subtraction of the corresponding signals measured for the control channel, which had been activated and blocked with ethanolamine. […] During this step the kₒₙ and koff rates were fitted globally, while the maximum response difference Rₘₐₓ was fitted locally for each curve.
# Trx-Aβ28 fusion protein [3] = target: T3, Trx-Aβ28 fusion protein; test: direct ELISA: Trx-Aβ28 coated, mutein titrated, detected via Strep-tag II
# Protocol: (§3) The Aβ targets Trx-Aβ28 and MBP-Aβ40 as well as the control protein maltose binding protein (MBP) were immobilized at 2 μM in PBS over night. Bound Lcn2 muteins were detected via their Strep-tag II using Streptavidin/AP followed by a chromogenic reaction with pNPP. As a control, the binding of wild-type (wt) lipocalin was tested. The data were fitted to a monovalent binding model.
# (§4) Alternatively, for a “direct” ELISA, 2 μM unlabeled Aβ40 target from Example 2 was adsorbed onto a 96-well MaxiSorp polystyrene microliter plate (Nunc, Langenselbold, Germany) and incubated with the purified Lcn2 mutein, which was detected via the Strep-tag II using a 1:1500 dilution of Streptavidin/AP conjugate (GE Healthcare UK Ltd, Buckinghamshire, UK). As a control, 2 μM MBP from Example 2 was adsorbed onto the ELISA plate. Absorption at 405 nm was measured in a SpectraMax 250 reader (Molecular Devices, Sunnyvale, USA).
# central peptide Aβ16-27 = target: T2, central peptide Aβ16-27; test: capture ELISA: mutein captured, Aβ16-27 titrated
# MBP-Aβ40 fusion protein [4] = target: T4, MBP-Aβ40 fusion protein; test: direct ELISA: MBP-Aβ40 coated, mutein titrated, detected via Strep-tag II
# Protocol: as §3, §4
# [5] = target: T5, biotinylated Aβ40 peptide (human, C-terminal biotin group attached via a lysine spacer); test: capture ELISA: mutein captured via Strep-tag II on StrepMAB-Immo, biotinylated Aβ40 titrated
# T5 construct: Synthetic peptide (Peptide Speciality Laboratory) with a C-terminal biotin on a lysine spacer; used in the capture ELISAs
# Protocol: as §1, §2
# MBP-Aβ40 fusion protein [6] = target: T4, MBP-Aβ40 fusion protein; test: capture ELISA: mutein captured, biotinylated MBP-Aβ40 titrated
# Protocol: as §1
# For selective capturing of the Lcn2 muteins carrying the C-terminal Strep-tag II (Schmidt and Skerra (2007) Nat. Protoc. 2, 1528-1535), a 96-well MaxiSorp polystyrene microtitre plate (Nunc, Langenselbold, Germany) was coated with 10 μg/mL StrepMAB-Immo (IBA, Göttingen, Germany) in PBS over night at 4° C. and blocked with 3% (w/v) BSA in PBS/T at room temperature for 1 h. After 3 washing steps with PBS/T, 50 μL of a 1 μM solution of the purified Lcn2 muteins from Example 7 were applied to all wells for 1 h. […]
# [7] = target: T6, Aβ40 peptide, non-labeled (human); test: SPOT membrane of overlapping Aβ40 peptides, 50 nM mutein
# T6 construct: Non-labeled synthetic peptide (W. M. Keck Laboratory); also called Abeta40; amyloid beta peptide
# T6 sequence (peptide, as listed by the source): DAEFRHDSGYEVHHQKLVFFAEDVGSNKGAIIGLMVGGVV
# T5 sequence (peptide, as listed by the source): as above
binder,measurement,setting,value
B1,binding result,ovalbumin,no binding (tested: 250 nM)
same,Kd,Trx-Aβ28 fusion protein [1],1.9 nM
same,Kd,MBP-Aβ40 fusion protein [2],1.7 nM
same,Kd,Trx-Aβ28 fusion protein [3],16.2 nM
same,Kd,central peptide Aβ16-27,2.6 nM
same,Kd,MBP-Aβ40 fusion protein [4],149 nM
same,Kd,[5],2.7 nM
same,Kd,MBP-Aβ40 fusion protein [6],4.7 nM
same,binding result,[7],binds
